These results are taken from patent publication US11673916B2, “Neuroprotective peptides and methods of their use” (University of Pittsburgh—Of the Commonwealth System of …, priority 2020, dated 2023).

One assay has as its target T1, VAPA (Rattus norvegicus, UniProt Q9Z270).
T1 construct: pEGFP-N1-VAPA; 1-242 (Addgene #18874); host or cells: HEK293 cells; whole lysate at 1 mg/ml total protein overlaid on the peptide arrays
T1 sequence (Q9Z270 8-249): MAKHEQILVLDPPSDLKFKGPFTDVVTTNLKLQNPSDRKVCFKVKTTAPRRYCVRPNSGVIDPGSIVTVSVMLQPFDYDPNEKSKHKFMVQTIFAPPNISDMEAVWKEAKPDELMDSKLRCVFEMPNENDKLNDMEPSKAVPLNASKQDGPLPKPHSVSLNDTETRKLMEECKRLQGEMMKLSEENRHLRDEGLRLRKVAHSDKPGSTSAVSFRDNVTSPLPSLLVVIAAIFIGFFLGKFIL
Briefly: Peptide spot array (far western) of binding to VAPA, cell-free. As to conditions: lysate of VAPA-transfected HEK293 cells (FIG. 11A). The protocol: Standard 9-fluorenylmethoxy carbonyl chemistry was used to synthesize peptides and spot them onto Celluspots nitrocellulose disks prederivatized with a polyethylene glycerol spacer (Intavis), using the Respep peptide synthesizer. The peptides were spotted on 20 membranes fitted on microscope glass slides (Intavis) using an Intavis MultiPep robot. For hybridization and immunoblotting of arrays, Celluspots slides were washed in TBST (50 mM Tris-HCl, pH 7.4, 150 mM NaCl, 0.1% Tween 20) for 10 minutes, […] blocked for 1 hour at room temperature (RT) with gentle shaking in TBST containing 5% nonfat dry milk. Lysates from HEK293 cells transfected as before (Yeh et al., J Neurosci. 37: 5648-5658, 2017; Yeh et al., Proc Natl Acad Sci USA. 116: 15696-15607, 2019; Dustrude et al., Proc Natl Acad Sci USA. 113: E8443-E8452, 2016) with pEGFP-N1-VAPA; 1-242 (Addgene #18874) were made in 20 mM Tris, 50 mM NaCl, 2 mM MgCl2, 1% Tergitol, 0.5% sodium deoxycholate, 0.1% sodium dodecyl sulfate with protease (Cat #B14002, Bimake), phosphatase (Cat #B15002, Bimake) inhibitor cocktails and 5 U/ml of universal nuclease (Cat #88702, Thermofisher) added extemporaneously. The concentration of lysates was measured by BCA (Cat #23227, Thermofisher) and peptide arrays were incubated with 1 mg/ml of total protein overnight at 4° C. (Yeh et al., J Neurosci. 37: 5648-5658, 2017; Yeh et al., Proc Natl Acad Sci USA. 116: 15696-15607, 2019; Moutal et al., Pain. 158: 2203-2221, 2017). Peptide arrays were washed 3 times for 5 minutes at RT with TBST and incubated with the primary antibody anti-VAPA (RRID AB_2722707; UC Davis/NIH NeuroMab Facility) for 2 hours at RT with gentle shaking in TBST, 5% BSA. After washing with TBST, the membranes were incubated in secondary antibody (IRDye® 800CW goat anti-mouse IgG secondary antibody; RRID AB_621842; Li-Cor) for 45 minutes, washed 3 times for 5 minutes in TBST, and visualized by infrared fluorescence (Li-Cor). Four independent peptide spot arrays were used in this study. Fluorescence intensity was analyzed with Image studio (Li-Cor).
Kv2.1 and Kv2.2 channels are recruited to ER-PM junctions via C-terminal PRC-mediated interaction with vesicle-associated membrane protein (VAMP)-associated protein A/B (VAPA/B) (Kirmiz, et al., J Neurosci. 38: 7562-7584, 2018; Johnson et al., Proc Natl Acad Sci USA. 115: E7331-E7340, 2018; Johnson, et al., Channels (Austin). 13: 88-101, 2019). This process occurs at non-canonical FFAT binding motifs within the PRC domains of Kv2.1 and Kv2.2 (FIG. 7B), which are recruited to the FFAT binding domain on VAPA/B (Kirmiz, et al., J Neurosci. 38: 7562-7584, 2018; Johnson et al., Proc Natl Acad Sci USA. 115: E7331-E7340, 2018; Johnson, et al., Channels (Austin). 13: 88-101, 2019). […]

The next assay deals with T2, Kv2.1 surface clusters (Rattus norvegicus, UniProt P15387).
T2 construct: expressed in transfected cells; host or cells: primary rat cortical neurons (E16-17 Sprague-Dawley), Lipofectamine 2000
T2 sequence (P15387 1-857): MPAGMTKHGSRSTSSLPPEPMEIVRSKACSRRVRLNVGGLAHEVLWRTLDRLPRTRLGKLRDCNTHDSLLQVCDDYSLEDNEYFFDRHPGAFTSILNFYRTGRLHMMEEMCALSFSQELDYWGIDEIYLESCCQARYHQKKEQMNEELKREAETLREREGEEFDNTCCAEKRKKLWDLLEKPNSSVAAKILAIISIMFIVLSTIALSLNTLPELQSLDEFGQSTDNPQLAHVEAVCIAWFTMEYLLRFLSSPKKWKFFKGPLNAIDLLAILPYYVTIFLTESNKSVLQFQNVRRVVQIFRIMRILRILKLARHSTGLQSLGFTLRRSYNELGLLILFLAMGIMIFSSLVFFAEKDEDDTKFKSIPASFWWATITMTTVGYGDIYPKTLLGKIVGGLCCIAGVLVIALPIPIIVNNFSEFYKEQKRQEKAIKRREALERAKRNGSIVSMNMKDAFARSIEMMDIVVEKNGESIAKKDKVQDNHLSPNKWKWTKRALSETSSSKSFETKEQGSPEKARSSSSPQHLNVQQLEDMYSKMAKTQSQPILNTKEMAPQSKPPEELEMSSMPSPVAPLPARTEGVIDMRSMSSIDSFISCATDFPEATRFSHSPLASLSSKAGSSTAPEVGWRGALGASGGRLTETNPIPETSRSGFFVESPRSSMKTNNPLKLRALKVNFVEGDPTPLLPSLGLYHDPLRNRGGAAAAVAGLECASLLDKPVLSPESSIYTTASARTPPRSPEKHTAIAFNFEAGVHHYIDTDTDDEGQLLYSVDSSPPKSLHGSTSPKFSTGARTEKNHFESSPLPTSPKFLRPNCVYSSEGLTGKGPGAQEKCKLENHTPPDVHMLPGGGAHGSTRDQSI
Briefly: Kv2.1 surface cluster density in live Kv2.1-GFP-transfected cortical neurons treated with TAT-linked peptides. The class given is cell-based. The settings on record: 10 μM. The protocol:
In vitro experiments utilized primary cortical neuronal cultures prepared from embryonic day 16-17 Sprague-Dawley rats of either sex in a protocol described previously (McCord et al., J Physiol (Lond). 592: 3511-3521, 2014). Timed-pregnant rats (Charles River Laboratories, Wilmington, Mass.) were sacrificed by CO2 inhalation. Embryonic cortices were dissociated with trypsin (0.6 mg/mL) and cells plated in sterile 6-well plates on poly-L-ornithine-coated glass coverslips at a density of 670,000 cells per well. Cytosine arabinoside (1-2 μM) was utilized to inhibit non-neuronal proliferation on day 14 in vitro (DIV); cultures were utilized at 21-25 DIV.
; Invitrogen, Carlsbad, Calif.). […]; Thermo Fisher Scientific, Waltham, Mass.). […]. Cultures were utilized 18-24 hours following transfection. cDNA amounts for each transfection experiment are described below for each figure. FIG. 1: 0.375 μg/well Kv2.1-GFP plasmid, 0.495 μg/well pcDNA3 vector plasmid, and 0.63 μg/well of either DP-1 or Sc-1, or Kv2.2 CT-expressing plasmid. FIGS. 2, 8, 9, 10, 12: 0.375 μg/well Kv2.1-GFP plasmid, 0.15 μg/well tdTomato plasmid (from Gerhart Ryffel; Addgene plasmid #30530), and 0.975 μg/well pcDNA3 vector plasmid.
To analyze Kv2.1 distribution in live primary cortical neurons, cells were transfected with both a tdTomato construct and a GFP-tagged Kv2.1 construct (O'Connell, et al., J Neurosci. 26: 9609-9618, 2006) and imaged on a Nikon A1+ confocal microscope (Nikon, Tokyo, Japan). Cells were chosen at random by looking only at the tdTomato signal (561 nm), in order to avoid bias. At least three separate culture dates were used per experiment and three coverslips were transfected per condition each time. For these experiments, “n” refers to the total number of cells imaged. Five to 15 optical sections (0.5 μm) capturing the cell surface were obtained of single cells at 60× magnification (Schulien et al., J Physiol (Lond). 594: 2647-2659, 2016), creating a maximum-intensity projection (MAX-IP) of Kv2.1-GFP distribution. To analyze Kv2.1 distribution in the cerebral cortex of fixed brain slices, 51-54 image fields were obtained at 60× magnification across 18 sections from three fixed mouse brains per treatment (total of 6 animals). Image fields were captured by first focusing on an area of superficial cortex closest to the cover glass. Next, 24 optical sections (0.5 μm) were obtained moving deeper into the tissue in order to produce a 12 μm maximum-intensity projection for analysis of Kv2.1 distribution. Laser power, HV (gain), offset, pinhole size, and all camera parameters were kept identical between all samples in a given experiment. Nikon Instruments Software Advanced Research (NIS-Elements AR) was utilized to analyze GFP-tagged Kv2.1 channel cluster distribution. For live images of transfected neurons, object count parameters were customized to define a Kv2.1 cluster as an area of high intensity GFP fluorescence (compared to background), measuring 0.05 μm^2 or larger (Schulien et al., J Physiol (Lond). 594: 2647-2659, 2016). Kv2.1 cluster density was calculated by normalizing the number of Kv2.1 clusters counted to the somatic area of each neuron (#Kv2.1 clusters/μm^2). Due to high variability in GFP-Kv2.1 expression between individual neurons, intensity thresholding required cell-specific local-background subtraction. In each neuron analyzed, two populations on Kv2.1-GFP expression were first noted—(a) highly localized signals of clustered Kv2.1 channels, and (b) diffuse background staining that represents freely-dispersed, conducting Kv2.1 channels on the plasma membrane. A small region of interest (ROI) within region (b) was set as the background subtraction standard of the image, creating an optimal signal-to-noise ratio for clustered Kv2.1 channels. […]

Setting [1] is: 2 hour treatment, mean±SEM (FIG. 11B).
Where [2] appears, read: 24 hour treatment, mean±SEM (FIG. 11C).

Regarding “EFFDAPE [positive control peptide, a canonical FFAT motif]”, the “binding to VAPA in peptide spot array” value in the assay with VAPA is recorded as “strong VAPA binding”.

With “SFISCAT [non-canonical FFAT motif of Kv2.1]”, the “binding to VAPA in peptide spot array” value with VAPA is given as “no binding”.

With “SFTSCAT [non-canonical FFAT motif of Kv2.2]”, the “binding to VAPA in peptide spot array” value with VAPA was “no binding”.

Turning to “SIDSFTS [DP-2, seven amino acid declustering peptide from Kv2.2 CT]”, the “binding to VAPA in peptide spot array” value with VAPA is “no binding”.

In the case of “YGRKKRRQRRRDEEFAP [TAT-FFATSc, scramble control peptide of TAT-FFAT]”, the figures for the “mean Kv2.1 surface cluster density” value with Kv2.1 surface clusters (setting [1]) and with Kv2.1 surface clusters (setting [2]) were 0.14±0.02 #Kv2.1 clusters/μm^2 of neuronal soma and 0.20±0.01 #Kv2.1 clusters/μm^2 of neuronal soma, respectively.

Turning to “YGRKKRRQRRREFFDAPE [TAT-FFAT, TAT-linked derivative of the canonical FFAT motif]”, the “mean Kv2.1 surface cluster density” value with Kv2.1 surface clusters (setting [1]) was 0.15±0.03 #Kv2.1 clusters/μm^2 of neuronal soma; with Kv2.1 surface clusters (setting [2]), 0.19±0.02 #Kv2.1 clusters/μm^2 of neuronal soma.
